The values below come from article doi:10.1101/2023.09.14.557805, “Determinants of DDX3X sensitivity uncovered using a helicase activity in translation reporter” (bioRxiv, 2023).

This test deals with T1, S. cerevisiae eIF4E (S. cerevisiae, UniProt P07260 1-213).
T1 construct: eIF4E of S. cerevisiae; 15N isotope labelled; m7GTP added to 250 μM in the NMR sample; source: E. coli BL21-star, purified (nickel resin, TEV cleavage, m7G cap resin)
T1 sequence (looked up): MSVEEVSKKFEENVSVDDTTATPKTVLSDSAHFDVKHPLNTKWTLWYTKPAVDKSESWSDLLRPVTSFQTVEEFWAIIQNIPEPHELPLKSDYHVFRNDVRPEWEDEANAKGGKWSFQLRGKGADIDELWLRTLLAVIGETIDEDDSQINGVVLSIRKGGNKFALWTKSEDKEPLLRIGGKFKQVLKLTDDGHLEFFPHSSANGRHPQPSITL
The experiment in a line: NMR titration; 15N HSQC of 200 μM 15N eIF4E with 250 μM m7GTP, peptide added to 1 mM; 50 mM phosphate pH 6.5, 50 mM KCl, 10% D2O, 298 K, 900 MHz. As to conditions: both partners purified.

B1: 4E-BP1 peptide (human 4E-BP1 amino acids 51–67) (peptide)
peptide: RIIYDRKFLMECRNSPV
notes: 4E-BP1, human, amino acids 51–67; Dissolved at 50 mM in DMSO; source: synthetic peptide (Elim Bio)
On to B1, for which the binding result was “binds”.
